B1: UbiA prenyltransferase domain-containing protein 1 (Homo sapiens), Q9Y5Z9 (parent)
chain: MAASQVLGEKINILSGETVKAGDRDPLGNDCPEQDRLPQRSWRQKCASYVLALRPWSFSASLTPVALGSALAYRSHGVLDPRLLVGCAVAVLAVHGAGNLVNTYYDFSKGIDHKKSDDRTLVDRILEPQDVVRFGVFLYTLGCVCAACLYYLSPLKLEHLALIYFGGLSGSFLYTGGIGFKYVALGDLIILITFGPLAVMFAYAIQVGSLAIFPLVYAIPLALSTEAILHSNNTRDMESDREAGIVTLAILIGPTFSYILYNTLLFLPYLVFSILATHCTISLALPLLTIPMAFSLERQFRSQAFNKLPQRTAKLNLLLGLFYVFGIILAPAGSLPKI

In the assay the parent is B1. The conditions noted are these: with rash_human HRAS.
On to R54A;P55A;W56A;S57A, for which the “effect of a mutation on the interaction” value was “disrupting interaction”.
In the case of N102S, the “effect of a mutation on the interaction” value is “disrupting interaction”.

For the origin of these results see IntAct's records for PubMed 30518913.
